Test results as given in the supplement of paper PMC9112550, “Optimization of the antimicrobial peptide Bac7 by deep mutational scanning” (BMC Biology, 2022).

system: Escherichia coli TOP10; assay: shrunken log2 fold change of peptide-encoding DNA abundance (4.5 h post-induction vs induction); higher = less antimicrobial activity (less host growth inhibition); conditions: time post-induction: 4.5 h; library: site-saturation at positions 5, 18, 19, 20
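Also: peptides expressed intracellularly from a pBAD plasmid library in pooled LB shake-flask culture, induced with 0.3% L-arabinose, DNA abundance read by NGS, three biological replicates, DESeq2 with apeglm shrinkage.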

First: RRIRRRPPRLPRPRPRPRKKPRP
Second: RRIRRRPPRLPRPRPRPYNKPRP
The “shrunken log2 fold change” value of the first is higher: 0.207 for the first, -0.664 for the second.

First: RRIRNRPPRLPRPRPRPGTEPRP
Second: RRIRCRPPRLPRPRPRPVLGPRP
The “shrunken log2 fold change” value of the first is lower: -0.145 for the first, 0.0642 for the second.

RRIRCRPPRLPRPRPRPDVYPRP and RRIRPRPPRLPRPRPRPMIWPRP are within 0.2 log units of each other in “shrunken log2 fold change” value: 0.0165 for the first, -0.136 for the second.

RRIRDRPPRLPRPRPRPAYQPRP and RRIRERPPRLPRPRPRPSTRPRP are within 0.2 log units of each other in “shrunken log2 fold change” value: -0.381 for the first, -0.232 for the second.

RRIRHRPPRLPRPRPRPIWLPRP and RRIRNRPPRLPRPRPRPVWFPRP are within 0.2 log units of each other in “shrunken log2 fold change” value: -0.00879 for the first, -0.113 for the second.

First: RRIRKRPPRLPRPRPRPLRVPRP
Second: RRIRIRPPRLPRPRPRPKVFPRP
The “shrunken log2 fold change” value of the first is higher: 1.04 for the first, 0.0502 for the second.

RRIRVRPPRLPRPRPRPDDAPRP and RRIRERPPRLPRPRPRPGSRPRP are within 0.2 log units of each other in “shrunken log2 fold change” value: 0.134 for the first, -0.0607 for the second.

First: RRIRIRPPRLPRPRPRPQINPRP
Second: RRIRERPPRLPRPRPRPEHQPRP
The “shrunken log2 fold change” value of the first is lower: -0.776 for the first, 0.0588 for the second.

RRIRDRPPRLPRPRPRPNYFPRP and RRIRKRPPRLPRPRPRPQGGPRP are within 0.2 log units of each other in “shrunken log2 fold change” value: -0.0536 for the first, 0.0321 for the second.

First: RRIRMRPPRLPRPRPRPLGQPRP
Second: RRIRPRPPRLPRPRPRPHFQPRP
The “shrunken log2 fold change” value of the first is higher: 0.738 for the first, 0.0551 for the second.

Compared with RRIRRRPPRLPRPRPRPQMGPRP, RRIRIRPPRLPRPRPRPDMFPRP is lower in “shrunken log2 fold change” value: 0.231 for the first, -0.17 for the second.

RRIRTRPPRLPRPRPRPFDEPRP and RRIRKRPPRLPRPRPRPTHYPRP are within 0.2 log units of each other in “shrunken log2 fold change” value: -0.206 for the first, -0.134 for the second.

First: RRIRHRPPRLPRPRPRPGVQPRP
Second: RRIRFRPPRLPRPRPRPKDYPRP
The “shrunken log2 fold change” value of the first is higher: 0.00489 for the first, -0.788 for the second.

First: RRIRFRPPRLPRPRPRPANMPRP
Second: RRIRNRPPRLPRPRPRPPMPPRP
The “shrunken log2 fold change” value of the first is higher: 0.321 for the first, 0.0312 for the second.

Going from RRIRFRPPRLPRPRPRPQRWPRP to RRIRCRPPRLPRPRPRPWKDPRP, the “shrunken log2 fold change” value falls from 0.427 to 0.00196.

RRIRWRPPRLPRPRPRPCWFPRP and RRIRGRPPRLPRPRPRPMVHPRP are within 0.2 log units of each other in “shrunken log2 fold change” value: 0.0945 for the first, -0.0529 for the second.

RRIRPRPPRLPRPRPRPQSYPRP and RRIRNRPPRLPRPRPRPKWCPRP are within 0.2 log units of each other in “shrunken log2 fold change” value: -0.202 for the first, -0.00686 for the second.

First: RRIRLRPPRLPRPRPRPRTTPRP
Second: RRIRKRPPRLPRPRPRPTQTPRP
The “shrunken log2 fold change” value of the first is lower: 0.182 for the first, 1.25 for the second.

Compared with RRIRDRPPRLPRPRPRPRPFPRP, RRIRARPPRLPRPRPRPQPFPRP is lower in “shrunken log2 fold change” value: 0.691 for the first, -0.0268 for the second.

RRIRIRPPRLPRPRPRPVWLPRP and RRIRRRPPRLPRPRPRPIVTPRP are within 0.2 log units of each other in “shrunken log2 fold change” value: 0.0726 for the first, 0.0446 for the second.

Compared with RRIRIRPPRLPRPRPRPRKPPRP, RRIRLRPPRLPRPRPRPCTIPRP is lower in “shrunken log2 fold change” value: -0.0479 for the first, -0.298 for the second.

Going from RRIRKRPPRLPRPRPRPAPEPRP to RRIRWRPPRLPRPRPRPFSRPRP, the “shrunken log2 fold change” value falls from 1.26 to -0.0399.

Going from RRIRWRPPRLPRPRPRPWSQPRP to RRIRWRPPRLPRPRPRPVDHPRP, the “shrunken log2 fold change” value falls from 0.298 to 0.0245.

Compared with RRIRGRPPRLPRPRPRPSHIPRP, RRIRCRPPRLPRPRPRPWPAPRP is higher in “shrunken log2 fold change” value: 0.0558 for the first, 0.375 for the second.

RRIRKRPPRLPRPRPRPGNHPRP and RRIRFRPPRLPRPRPRPIWYPRP are within 0.2 log units of each other in “shrunken log2 fold change” value: 0.0875 for the first, 0.192 for the second.

Going from RRIRKRPPRLPRPRPRPTQWPRP to RRIRERPPRLPRPRPRPIWFPRP, the “shrunken log2 fold change” value falls from 0.622 to 0.0591.

Compared with RRIRHRPPRLPRPRPRPTGPPRP, RRIRWRPPRLPRPRPRPKYSPRP is lower in “shrunken log2 fold change” value: 0.149 for the first, -0.654 for the second.

First: RRIRNRPPRLPRPRPRPCDAPRP
Second: RRIRWRPPRLPRPRPRPHERPRP
The “shrunken log2 fold change” value of the first is lower: -0.195 for the first, 0.156 for the second.

Compared with RRIRERPPRLPRPRPRPPAAPRP, RRIRIRPPRLPRPRPRPICCPRP is lower in “shrunken log2 fold change” value: 0.252 for the first, -0.107 for the second.

RRIRERPPRLPRPRPRPIWNPRP and RRIRWRPPRLPRPRPRPQCVPRP are within 0.2 log units of each other in “shrunken log2 fold change” value: -0.0842 for the first, -0.0311 for the second.

First: RRIRHRPPRLPRPRPRPQDFPRP
Second: RRIRGRPPRLPRPRPRPEIDPRP
The “shrunken log2 fold change” value of the first is lower: 0.0261 for the first, 1.63 for the second.

RRIRYRPPRLPRPRPRPMPDPRP and RRIRWRPPRLPRPRPRPFPGPRP are within 0.2 log units of each other in “shrunken log2 fold change” value: -0.204 for the first, -0.0199 for the second.

Going from RRIRSRPPRLPRPRPRPWYLPRP to RRIRERPPRLPRPRPRPKGSPRP, the “shrunken log2 fold change” value rises from -0.617 to 0.00854.

RRIRGRPPRLPRPRPRPCGIPRP and RRIRRRPPRLPRPRPRPDLNPRP are within 0.2 log units of each other in “shrunken log2 fold change” value: 0.206 for the first, 0.16 for the second.

Compared with RRIRYRPPRLPRPRPRPNYWPRP, RRIRSRPPRLPRPRPRPMPLPRP is higher in “shrunken log2 fold change” value: -0.698 for the first, -0.0685 for the second.

RRIRMRPPRLPRPRPRPYLQPRP and RRIRFRPPRLPRPRPRPFTGPRP are within 0.2 log units of each other in “shrunken log2 fold change” value: -0.0699 for the first, -0.246 for the second.

RRIRQRPPRLPRPRPRPTLFPRP and RRIRDRPPRLPRPRPRPDCYPRP are within 0.2 log units of each other in “shrunken log2 fold change” value: 0.12 for the first, 0.269 for the second.

Compared with RRIRVRPPRLPRPRPRPQLAPRP, RRIRIRPPRLPRPRPRPFMYPRP is lower in “shrunken log2 fold change” value: 0.402 for the first, -1.36 for the second.

RRIRFRPPRLPRPRPRPMYLPRP and RRIRWRPPRLPRPRPRPVHPPRP are within 0.2 log units of each other in “shrunken log2 fold change” value: -0.376 for the first, -0.23 for the second.

First: RRIRIRPPRLPRPRPRPCEHPRP
Second: RRIRRRPPRLPRPRPRPLCYPRP
The “shrunken log2 fold change” value of the first is higher: -0.00165 for the first, -0.236 for the second.

Going from RRIRRRPPRLPRPRPRPMIAPRP to RRIRQRPPRLPRPRPRPMMGPRP, the “shrunken log2 fold change” value falls from 0.121 to -0.107.

Going from RRIRGRPPRLPRPRPRPLKFPRP to RRIRGRPPRLPRPRPRPAVNPRP, the “shrunken log2 fold change” value rises from 0.11 to 0.402.

First: RRIRIRPPRLPRPRPRPMAAPRP
Second: RRIRKRPPRLPRPRPRPGRIPRP
The “shrunken log2 fold change” value of the first is higher: 0.403 for the first, -0.0354 for the second.

Going from RRIRMRPPRLPRPRPRPSANPRP to RRIRYRPPRLPRPRPRPPPIPRP, the “shrunken log2 fold change” value falls from 2.44 to 0.0596.

RRIRNRPPRLPRPRPRPYRYPRP and RRIRMRPPRLPRPRPRPSSQPRP are within 0.2 log units of each other in “shrunken log2 fold change” value: 0.0342 for the first, 0.212 for the second.

Going from RRIRTRPPRLPRPRPRPQKLPRP to RRIRKRPPRLPRPRPRPLTSPRP, the “shrunken log2 fold change” value rises from -0.364 to 0.0205.

RRIRRRPPRLPRPRPRPKFQPRP and RRIRFRPPRLPRPRPRPVSGPRP are within 0.2 log units of each other in “shrunken log2 fold change” value: -0.00642 for the first, -0.0636 for the second.

Compared with RRIRKRPPRLPRPRPRPTWEPRP, RRIRRRPPRLPRPRPRPVKRPRP is higher in “shrunken log2 fold change” value: -0.0667 for the first, 0.457 for the second.

Going from RRIRMRPPRLPRPRPRPDLQPRP to RRIRFRPPRLPRPRPRPFPSPRP, the “shrunken log2 fold change” value falls from 0.461 to -0.179.

RRIRHRPPRLPRPRPRPFSKPRP and RRIRARPPRLPRPRPRPYVEPRP are within 0.2 log units of each other in “shrunken log2 fold change” value: 0.0242 for the first, -0.162 for the second.

First: RRIRQRPPRLPRPRPRPLLRPRP
Second: RRIRNRPPRLPRPRPRPVMGPRP
The “shrunken log2 fold change” value of the first is lower: -0.0709 for the first, 0.147 for the second.

RRIRERPPRLPRPRPRPLQGPRP and RRIRKRPPRLPRPRPRPYYGPRP are within 0.2 log units of each other in “shrunken log2 fold change” value: -0.179 for the first, -0.101 for the second.

RRIRARPPRLPRPRPRPKQSPRP and RRIRWRPPRLPRPRPRPGAQPRP are within 0.2 log units of each other in “shrunken log2 fold change” value: 0.608 for the first, 0.655 for the second.

Compared with RRIRGRPPRLPRPRPRPGVYPRP, RRIRQRPPRLPRPRPRPTEIPRP is lower in “shrunken log2 fold change” value: 0.0589 for the first, -0.223 for the second.

For RRIRHRPPRLPRPRPRPSCGPRP, the “shrunken log2 fold change” value was -0.304.
